Measured values reported in patent US20240398863A1 (ARCE THERAPEUTICS, published 2024).
Blank lines part the entries; values can stand above or below the molecule they belong to.

Columns and labels:
[1] = target: Human C-type lectin-like molecule-1 (CLL-1) on cells (human) (UniProt Q5QGZ9); experiment: flow cytometry histogram on HL60 AML cells
[2] = target: Human C-type lectin-like molecule-1 (CLL-1) on cells (human) (UniProt Q5QGZ9); experiment: flow cytometry histogram on U937 AML cells
[3] = target: Human C-type lectin-like molecule-1 (CLL-1) on cells (human) (UniProt Q5QGZ9); experiment: flow cytometry histogram on THP-1 AML cells
[4] = target: Human C-type lectin-like molecule-1 (CLL-1) on cells (human) (UniProt Q5QGZ9); experiment: flow cytometry histogram on Molm13 AML cells
[5] = target: Human C-type lectin-like molecule-1 (CLL-1) on cells (human) (UniProt Q5QGZ9); experiment: flow cytometry histogram on Molm14 AML cells; the bold label in the same panel prints 67.1%
[6] = target: Human C-type lectin-like molecule-1 (CLL-1) on cells (human) (UniProt Q5QGZ9); experiment: flow cytometry dot plot on Molm14 WT cells, CLL-1_APC_A against CD123_BV421_A (D-Q1: 0.14%, D-Q3: 0.28%, D-Q4: 18.03%); in the Molm14 CLL-1KO pool the same quadrant holds D-Q2: 10.47% and D-Q4: 89.48%
CLL-1-ECD [7] = target: T1, CLL-1-ECD (human, UniProt Q5QGZ9 65-265); experiment: AlphaLISA; column head 'Affinity: Kd (M) by AlphaLISA'; clone printed as 56D01, FIG. 3A on the same sheet prints 65D01
T1 construct: extracellular domain; also called CLL-1-ECD antigen
T1 sequence (looked up): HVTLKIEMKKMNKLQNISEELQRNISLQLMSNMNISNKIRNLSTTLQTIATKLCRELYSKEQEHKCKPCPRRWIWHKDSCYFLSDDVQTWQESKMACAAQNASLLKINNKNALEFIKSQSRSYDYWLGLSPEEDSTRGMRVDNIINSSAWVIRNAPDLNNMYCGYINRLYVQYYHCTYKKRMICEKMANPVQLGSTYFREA
Procedure: (§1) In order to characterize the antigen binding capacities of anti-CLL-1 scFv-Fc antibodies, an AlphaLISA sandwich assay was set up with Anti-6×His Acceptor beads, Protein A Donor beads, and CLL-1-ECD. By AlphaLISA assay, the Kd values of each anti-CLL-1 scFv-Fc antibody were determined.

CLL-1-ECD [8] = target: T1, CLL-1-ECD; experiment: AlphaLISA; column head 'Affinity: Kd (M) by AlphaLISA'
Procedure: as §1

CLL-1-ECD [9] = target: T1, CLL-1-ECD; experiment: AlphaLISA sandwich assay with Anti-6xHis Acceptor beads, Protein A Donor beads and CLL-1-ECD
Procedure: as §1

[10] = target: T2, Human C-type lectin-like molecule-1 (CLL-1) on cells (human, UniProt Q5QGZ9 1-265); experiment: flow cytometry, overlaid histograms on K562-CLL-1 OFP cells; panel title 'Anti-CLL-1 scFv-Fc Abs_2 nM' (legend paragraph 56 says 0.2 nM); control: 2nd antibody only [B]
T2 construct: whole, on cells; also called CLL-1 antigens; MICL
T2 sequence (looked up): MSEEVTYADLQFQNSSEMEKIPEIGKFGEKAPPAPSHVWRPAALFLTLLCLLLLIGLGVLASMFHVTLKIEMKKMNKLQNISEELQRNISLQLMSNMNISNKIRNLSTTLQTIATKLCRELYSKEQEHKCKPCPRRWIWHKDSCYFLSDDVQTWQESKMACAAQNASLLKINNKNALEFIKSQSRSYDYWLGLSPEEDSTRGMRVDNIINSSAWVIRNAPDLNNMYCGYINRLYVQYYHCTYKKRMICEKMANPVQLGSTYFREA
Procedure: FIG. 1 illustrates screening of the anti-CLL-1 antibodies disclosed herein by flow cytometry: (A) Representative flow cytometry dot plots. (B) Overlapping histograms. Each scFv-Fc antibody was stained at 0.2 nM with paired K562-CLL-1 and K562 cells, followed by staining with fluorochrome-conjugated 2nd antibody for flow cytometry analysis;
As illustrated in FIGS. 1A-B and 2, purified scFv-Fc antibodies were further assessed by flow cytometry for their binding to CLL-1 antigens of the K562-Luc-CLL-1 transfectant as well as the CLL-1+ AML cell line, U937, MOLM-14 and THP-1. K562 cells, a human erythroleukemic cell line, and Raji-Luc cells, a human B lymphoblastoid cell line, were used as the CLL-1-negative control cell lines. Each scFv-Fc antibody was screened with six cell lines, including K562, K562-CLL-1, U937, MOLM-14, THP-1 and Raji. Although the binding profiles of each clone varied with cell lines tested, the Top 3 clones with stronger binding pattern were selected, and the ranges of binding percentage were 52%˜99% for K562-Luc-CLL-1, 25%˜98% for U937, 6%˜37% for MLOM-14 and 1%-36% for THP-1.

binding result [10]: binds
B4: 59A09 (Fc fusion)
VH: EVQLVESGGGLVQPGGSLRLSCAASGFTFTDYYIHWVRQAPGKGLEWVSMISPSGGGEAYYADSVKGRFTISRDNSKNTLYLQMNSLRAEDTAVYYCARAHDFDDFDYWGQGTLVTVSS
VL: DIQMTQSPSSLSASVGDRVTITCRASQSIRYSLAWYQQKPGKASKLLIYDASTLQSGVPSRFSGSGSGTDFTLTISSLQPEDFATYYCQQYNNSPLTFGQGTKVEIK
notes: anti-CLL-1 scFv-Fc clone; also called anti-CLL-1-59A09; K562-CLL-1 OFP 59A09

binding result [10]: binds
B5: 61A07 (Fc fusion)
VH: EVQLVESGGGLVQPGGSLRLSCAASGFTFSNHWMHWVRQAPGKGLEWVSSISGAGGGKSYADSVKGRFTISRDNSKNTLYLQMNSLRAEDTAVYYCARDESSYAYDGDYWGQGTLVTVSS
VL: DIQMTQSPSSLSASVGDRVTITCRANQSIRNYLNWYQQKPGKAPKLLIYAASTLQSGVPSRFSGSGSGTDFTLTISSLQPEDFATYYCQQNTSSPSTFGQGTKVEIK
notes: anti-CLL-1 scFv-Fc clone; also called anti-CLL-1-61A07; K562-CLL-1 OFP 61A07

The next lines start with the molecule.

Molecule: anti-human CLL-1-APC antibody (clone REA431)
% positive cells (gate D) [1]: 74.4%
% positive cells (gate D) [2]: 99.3%
% positive cells (gate D) [3]: 71%
% positive cells (gate D) [4]: 21.6%
% positive cells (gate D) [5]: 67.6%
% cells in quadrant D-Q2 (CLL-1 APC+ CD123 BV421+) [6]: 81.5%

B1: anti-CLL-1 scFv-Fc antibody 65D01 (Fc fusion)
VH: QVQLQQWGAGLLKPSETLSLTCAVYGGSFSGYYWSWIRQPPGKGLEWIGEINHSGSTNYNPSLKSRVTISVDTSKNQFSLKLSSVTAADTAAYYCARSPLQWLDDAFDIWGQGTMVTVSS
VL: QSVLTQPPSVSAAPGQRVTISCSGSSSNIGSNYVSWYQQLPGTAPKLLIYDNNERPSGIPDRFSGSKSATSATLDITGLQTGDEADYFCGTWDNSPSTDWVFGGGTKVTVLG
notes: also called anti-CLL-1-65D01
Kd (CLL-1-ECD [7]): 2.8 nM

B2: anti-CLL-1 scFv-Fc antibody 61H08 (Fc fusion)
VH: EVQLVESGGGLVQPGGSLRLSCAASGFTFDDYGMHWVRQAPGKGLEWVSGIWPSGGNKEYADSVKGRFTISRDNSKNTLYLQMNSLRAEDTAVYYCARLLALTYDYFDYWGQGTLVTVSS
VL: DIQMTQSPSSLSASVGDRVTITCRASQGISSYLAWYQQKPGKAPKLLIYDASTLQSGVPSRFSGSGSGTDFTLTISSLQPEDFATYYCQQSYSTPFTFGQGTKVEIKR
notes: also called anti-CLL-1-61H08
Kd (CLL-1-ECD [8]): 4.9 nM

B3: anti-CLL-1 scFv-Fc antibody 72C10 (Fc fusion)
VH: EVQLVESGGGLVQPGGSLRLSCAASGFTFSVNAMHWVRQAPGKGLEWVSTISGSDGHKYYADSVKSRFTISRDNSKNTLYLQMNSLRAEDTAVYYCARDVDSEIGDGYHEDIWGQGTLVTVSS
VL: DIQMTQSPSSLSASVGDRVTITCRASQSVTNALNWYQQKPGKAPKLLIYAASNLQSGVPSRFSGSGSGTDFTLTISSLQPEDFATYYCQQTNNSPATFGQGTKVEIKR
notes: also called anti-CLL-1-72C10
Kd (CLL-1-ECD [8]): 1.1 nM
EC50 (read off the curve) (CLL-1-ECD [9]): ~1 nM
